In publication PMC11109380 one finds reduction of binding compared to CD3ε WT, reduction of TCR-LCK proximity compared to WT and residual binding data, which are given here for one substance.

Bounds are passed on as bounds.

The target in assay [1] is human CD3ε cytoplasmic tail fused to GST, Y39/50E (human). The assay can be described thus: pull-down; GST-CD3ε cytoplasmic tail variants on glutathione sepharose beads, incubated with Jurkat T cell lysate (lysis buffer with 0.3% Brij96V, 20 mM Tris-HCl pH 8, 137 mM NaCl) overnight at 4°C; immunoblot, signals normalised to GST.
The target of assay [2] is human CD3ε cytoplasmic tail fused to GST, Y50E (human). Described as above.
Assay [3] has as its target human CD3ε Y50E-FLAG expressed in JK εKO cells (human). The assay can be described thus: proximity ligation; in situ PLA (Duolink) with goat anti-CD3ε and mouse anti-LCK in JK εKO cells expressing hCD3ε variants; unstimulated or stimulated with 5 μg/ml anti-CD3ε (OKT3) for 5 min at 37°C; dots per cell normalised to the stimulated WT.

The substance “Src family kinase LCK (from UniProt P06239 1-509) (enzyme)” returned a reduction of binding compared to CD3ε WT in assay [1] of 80%. The reduction of binding compared to CD3ε WT in assay [2] is 80%. In assay [3], this substance displayed a reduction of TCR-LCK proximity compared to WT of 60% and a residual binding below 30%.
